# Test results published in article PMC12480533 (Nature Communications, 2025).
# B1: full-length human SLC30A10 (natural protein, UniProt Q6XR72 1-485, looked up)
# chain: MGRYSGKTCRLLFMLVLTVAFFVAELVSGYLGNSIALLSDSFNMLSDLISLCVGLSAGYIARRPTRGFSATYGYARAEVVGALSNAVFLTALCFTIFVEAVLRLARPERIDDPELVLIVGVLGLLVNVVGLLIFQDCAAWFACCLRGRSRRLQQRQQLAEGCVPGAFGGPQGAEDPRRAADPTAPGSDSAVTLRGTSVERKREKGATVFANVAGDSFNTQNEPEDMMKKEKKSEALNIRGVLLHVMGDALGSVVVVITAIIFYVLPLKSEDPCNWQCYIDPSLTVLMVIIILSSAFPLIKETAAILLQMVPKGVNMEELMSKLSAVPGISSVHEVHIWELVSGKIIATLHIKYPKDRGYQDASTKIREIFHHAGIHNVTIQFENVDLKEPLEQKDLLLLCNSPCISKGCAKQLCCPPGALPLAHVNGCAEHNGGPSLDTYGSDGLSRRDAREVAIEVSLDSCLSDHGQSLNKTQEDQCYVNRTHF
# Target: the molecule itself
# Experiment: cryo-EM structure
protein,measurement,value
B1,stoichiometry N,2
